Source: the nanobody polyreactivity screen of Harvey et al. (2022)

test: yeast display, Sf9 membrane polyspecificity reagent, FACS + sequencing; frameworks hold sequencing errors
Method in brief: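 Using colony PCR, genes from sorted yeast display clones were amplified, then sequenced on MiSeq at 2 × 250 and filtered by CDR length. The clones had been stained with 10% biotinylated, detergent-solubilized Sf9 membrane reagent for 1 hour at 4 °C and sorted by FACS into low and high (top ~1%) gates on anti-HA and streptavidin fluorescence. Polyreactivity labels come from the gate of origin.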

Row | Sequence | polyreactivity (PSR sort gate)
1 | QVQLVESGGGLVQAGGSLRLSCAASGSTFPLNAMAWYRHAPGKERELVAAITWSGANTYYADSVKGRFTISRDNAKNTVYLQMNSLKPEDTAVYYCAAGSYAGFAVIGYYYWGQGTQVTVSS | low polyreactivity
2 | QVQLVESGGGLVQAGGSLRLSCAASGSTFPLYAMGRYRQAPGKERELVAAITSGGGNTYYADSLKGRFTISRDNAKNTVYLQMNSLKPEDTAVYYCAAVGGYKSYYSYEYDYWGQGTQVTVSS | low polyreactivity
3 | QVQLVESGGGLVQAGGSLRLSCAASGSTFPLYAMGWYRQAPGKERELVAAITTGGGNTYYADSVKGRFTISRDNAKNTVYLQLNSLTPEDTAVYYCAKPYHIGLSGRRTYDYWGQGTQVTVSS | high polyreactivity
4 | QVQLVESGGGLVQAGGSLRLSCAASGSTFPPNAMGWYRQAPGKERELVAAISASGGRTYYADSVKGRFTISRDNAKNTVYLQMNSLKPEDTAVYYCNARGGRYGRGSSDQLDYYWGQGTQVTVSS | high polyreactivity
5 | QVQLVESGGGLVQAGGSLRLSCAASGSTFPPNAMGWYRQAPGKERELVADSSDSSTYYADSVKGRFTISRDNAKNTVYLQMNSLKPEDTAVYYCAAADAGLRSKSYGQQYDYWGQGTQVTVSS | low polyreactivity
6 | QVQLVESGGGLVQAGGSLRLSCAASGSTFPPYAMGWYRQAPGKERELVAAISWSGSGSTYYADSVKGRFTISRDNAKNTVYLQMNSLKPEDTAVYYCAAGYVRVITPAYYYWGQGTQVTVSS | low polyreactivity
7 | QVQLVESGGGLVQAGGSLRLSCAASGSTFPPYVIGWYRPAPGKERELVAAITWSSGSTYYADSVKGRFTISRDNAKNTVYLQMNSLKPEDTAVYYCAARAYRWGQGTQVTVSS | low polyreactivity
8 | QVQLVESGGGLVQAGGSLRLSCAASGSTFPPYVMGWYRQAPGKERELVAAISRGGGSTYYADSVKGRFTISRDNAKNTVYLQMNSLKPEDTAVYYCAAKNVYHDDYWGQGTQVTVSS | high polyreactivity
9 | QVQLVESGGGLVQAGGSLRLSCAASGSTFPQNDMGWYRQAPGKERELVAAITRSAGSTYYADSVKGRFTISRDNAKNTVYLQMNSLKPEDTAVYYCNTGRQRGDGWGQGTQVTVSS | high polyreactivity
10 | QVQLVESGGGLVQAGGSLRLSCAASGSTFPQNVMGWYRQAPGKERELVAAITRSAGSTYYADSVKGRFTISRDNAKNTVYLQMNSLKPEDTADYYCNTGRQRGDCWGQGTQVTVSS | high polyreactivity
11 | QVQLVESGGGLVQAGGSLRLSCAASGSTFPQYAMGWYRQAPGKERELVAAISARGDSTSYADSVKGRFTISRDNAKNTVYLQMNSLKPEDTAVYYCNAPSRNGFSVTDTPDGYDYWGQGTQVTVSS | low polyreactivity
12 | QVQLVESGGGLVQAGGSLRLSCAASGSTFPRNDMGWYRQAPGKERELVAAISRGGSTNYADSVKGRFTISRDNAKNTVYLQMNSLKPEDTAVYYCAAQIFECAYGMDYWGQGTQVTVSS | low polyreactivity
13 | QVQLVESGGGLVQAGGSLRLSCAASGSTFPRNDMGWYRQAPGKERELVAAISRGGSTNYADSVKGRFTISRDNAKNTVYLQMNSLKPEDTAVYYCAAQIIESAYGMDYWGQGTQVTVSS | low polyreactivity
14 | QVQLVESGGGLVQAGGSLRLSCAASGSTFPRYAMGWFRQAPGKEREFVAAISRRGGSTYYADSVKGRFTISRDNAKNTVYLQMNSLKPEDTAVYYCANRVRTGSVGNFNYWGQGTQVTVSS | high polyreactivity
15 | QVQLVESGGGLVQAGGSLRLSCAASGSTFPRYAMGWYRPAPGKERELVAAISSSGRTYYADSVKGRFTISRDNAKNTVYLQMNSLNPEDTAVYYCNAPVARGEASYYWGQGTQVTVSS | high polyreactivity
16 | QVQLVESGGGLVQAGGSLRLSCAASGSTFPRYAMGWYRQAPGKERELVATITSGGSTYYADSVKGCFTISRDNAKNTFYLQMNSLKPEDTAVYYCAAGYRWTYTSGTYIRYNYWGQVTQVTVSS | high polyreactivity
17 | QVQLVESGGGLVQAGGSLRLSCAASGSTFPSNAMGWYRQAPGKERELVAAISSGGRTYYADSVKGRFTISRDNAKNTVYLQMKSLKPEDTAVYYCAADTDRRSPFDYWGQGTQVTVSS | high polyreactivity
18 | QVQLVESGGGLVQAGGSLRLSCAASGSTFPSYAMGGYRPAPGKERELVAAINRSGGSTYYADSVKGRFTISRDNAKNTVYLQMNSLKPEDTAVYYCATGLTTGGGYYWGQGTQVTVSS | high polyreactivity
19 | QVQLVESGGGLVQAGGSLRLSCAASGSTFPSYAMGWYRQAPGKERELVAAITRSGGRTYYADSVKGRFTISRDNAKNTVYLQMNSLKPEDTAVYYCAADLGRNYDYWGQGTQVTVLS | low polyreactivity
20 | QVQLVESGGGLVQAGGSLRLSCAASGSTFPTNAMGWYRQAPGKERELVAAISQRGDSTSYADSVKGRFTISRDNAKNTVYLQMNSLKPEDTAVYYCAARPLYSYSQWGYGYWGQGTQVTVSS | high polyreactivity
21 | QVQLVESGGGLVQAGGSLRLSCAASGSTFPTNTMGWYRQAPGKERELVAAITGGGSTYYADSVKGRFTISRDNAKNTVYLQMNSLKPEDTAVYYCAADDSWFYYGYGYWGQGTQVTVSS | low polyreactivity
22 | QVQLVESGGGLVQAGGSLRLSCAASGSTFPTYAMGWYRQAPGKERELVAAISFSGARTYYADSVKGRFTISRDNAKNTVYLQMNSLKPEDTAVYYCAKASSYSRRYEYWGQGTQVTVSS | high polyreactivity

Row | Sequence | polyreactivity (PSR sort gate)
23 | QVQLVESGGGLVQAGGSLRLSCAASGSTFPVYAMGWYRQAPGKERELVAAISWRGDSTYYADSVKGRFTISRDNAKNTVYLQMNSLKPEDTAVYYCAASTGSVVRRYYYWGQGTQVTVSS | high polyreactivity
24 | QVQLVESGGGLVQAGGSLRLSCAASGSTFPVYAMGWYRQAPGKERELVARISSGSSTNYADSVKGRFTNSRDKAKNTVYLQMNSLKPEDTAVSYCAAQTPRFVWQKGPLDSEEYWGQGTQVTVSS | high polyreactivity
25 | QVQLVESGGGLVQAGGSLRLSCAASGSTFPVYDMGWYRQAPGKERELVAAITAGVSTNYADSVKGRFTISRDNAKNTVYLQMNSQKPEDTAVYYCAKDFGLLPIRDDYWGQGTQETVSS | low polyreactivity
26 | QVQLVESGGGLVQAGGSLRLSCAASGSTFPVYVMGWYRQAPGKERELVATITIVVSTKYADSVKGRFTISRDNAKNTVYLQMNSLKPEDTAVYYCAKDDVYRDSYLVFDGEMDYWGQGTQVTVSS | low polyreactivity
27 | QVQLVESGGGLVQAGGSLRLSCAASGSTFPWNAMGWHRQAPGKERELVAAISKSGGRTYYADSVKGRFTISRDNAKNTVYLQMNSLRPEDTAVYYCNALGSLDGRYGYWGQGTQVTVSS | high polyreactivity
28 | QVQLVESGGGLVQAGGSLRLSCAASGSTFPWNAMGWYRQAPGKERELVAAISSGGSTNYADSVKGRFTISRDNAKNTVYLQMNSLKPEDTAVYYCNAYYWSDSRGKYDYWGQGTQVTVSS | low polyreactivity
29 | QVQLVESGGGLVQAGGSLRLSCAASGSTFPYNAMGWYRQAPGKERELVAAITSAGGTNYADSVKGRFTISRDNAKNTVYLQMNSLKPEDTAVYYCAADGSGYYDWYYYWGQGTQVTVSS | low polyreactivity
30 | QVQLVESGGGLVQAGGSLRLSCAASGSTFPYNAMGWYRQAPGKERELVAVITTVGSTYYADSVKGRFTISRDNAKNTVYLQMNSLKPEDTAVYYCAAANTQSPGYDYWGQGTQVTVSS | low polyreactivity
31 | QVQLVESGGGLVQAGGSLRLSCAASGSTFPYNAMGWYRQAPGKEWELVAAISQSGGSTYYADSVKGRFTISRDNAKNTVYLQMNSLKPEDTAVYYCATDQSLLAHYDYWGQGTQVTVSS | low polyreactivity
32 | QVQLVESGGGLVQAGGSLRLSCAASGSTFPYNVMGWYRQAPGKEREFVAAISSSSGSTYYADSVKGRFTISRDNAKNTVYLQMNSLKPEDTAVYYCARRHPRQRQDGKVDYWGQGTQVTVSS | low polyreactivity
33 | QVQLVESGGGLVQAGGSLRLSCAASGSTFPYVMGWSRQAPGKERELVAAISQRTGSTYYADSVKGRFTSSRDNAKNTVYLQMNSLKPEDTAVYYCAKPGYLRPSRYDYWGQGTQVTVSS | high polyreactivity
34 | QVQLVESGGGLVQAGGSLRLSCAASGSTFPYVMGWYRQAPGKERELVAAISWSGTSTYYADSVKGRFTISRDNAKNTVYLQMNSLKPEDTAVYYCNVVYRVVSPSGGGYWGQGTQVTVSS | high polyreactivity
35 | QVQLVESGGGLVQAGGSLRLSCAASGSTFPYYALGLYRQAPGKERELVAAISRGGGITYYADSVKGRFSISRDNAKNTVYLQMNCLKPEDTAVYYCAAYTAAEQGYNYWGQGTQVTVSS | high polyreactivity
36 | QVQLVESGGGLVQAGGSLRLSCAASGSTFPYYAMGWYRQAPWKERELVAAIRRRTGSTHYADSVKGRFSISRDNAMNTVYLQMNSLKQEDTAFYYCAADVSYRGNGHGYWGQGTQVNVSS | low polyreactivity
37 | QVQLVESGGGLVQAGGSLRLSCAASGSTFPYYAMGWYRQEPGKERELVASIRKRGGGTYYADSVKGRFTISRDNAKNTVYLQMNSLKPEDTAVYYCAVRVYQFRYTGYDYWGQGTQVTVSS | high polyreactivity
38 | QVQLVESGGGLVQAGGSLRLSCAASGSTFPYYTMGWYRQAPGKERELVAAITWRGGRTYYADSVKGRFTISRDNAKNTVYLQMNSLKPEDTAVYYCAAKQKHTQQTGWKYEYWGQGTQVTVSS | high polyreactivity
39 | QVQLVESGGGLVQAGGSLRLSCAASGSTFPYYVMGWYRQAPGKERELVASIRSNSGRTYYADSVKGRFTISRDNAKNTVYLQMNSLKPEDTAVYYCNAGVPRYAYTYVKGYYWGQGTQVTVSS | high polyreactivity
40 | QVQLVESGGGLVQAGGSLRLSCAASGSTFQFYAMGWYRQAPGKEREFVAAIDFGGAGTYYADSVKGRFTISRDTAKNTVYLQMNSLKPEDTAVYYCNARDGVTSEFDYWGQGTQVTVSS | low polyreactivity
41 | QVQLVESGGGLVQAGGSLRLSCAASGSTFQFYAMGWYRQAPGKERELVAAIRSSDDSTYYADSVKGRFTISRDNAKNTVYLQMNSLKPEDTAVYYCAAVQDYYGVWYDYWGQGTQVTVSS | high polyreactivity
42 | QVQLVESGGGLVQAGGSLRLSCAASGSTFQFYAMGWYRQAPGKERELVAAISVSGDRTYYADSVKARFTISRDNAKNTVYLQMNSLKPEDSAVYYCAARYGPFKRRFDYWGLGTQVTVSS | high polyreactivity
43 | QVQLVESGGGLVQAGGSLRLSCAASGSTFQGNAMGWYSQAPGKERELVAAISRSGGSTYADSVKGRFTISRDNAKNTVYLQMNSLKPEDTAVYYCAAYSGVGYLWFDYWGQGTQVTVSS | low polyreactivity
